pKd: −log10 of the molar value.

A word on the pKd: it is the Kd on a negative log10 scale, so that one unit is a factor of ten. Low values mean a large Kd, high ones a small Kd. For orientation: stoichiometry N means a count of units in the complex or per binding partner.

The target in experiment [1] is Schizosaccharomyces pombe Rpn10, full-length (residues 1-243) (Schizosaccharomyces pombe) (UniProt O94444). As to the kind of experiment: ITC. In general terms: In ITC the heat of successive injections is recorded.
Schizosaccharomyces pombe Rpn10, full-length (residues 1-243) (Schizosaccharomyces pombe), sequence (O94444 whole entry, the tested form may be a part): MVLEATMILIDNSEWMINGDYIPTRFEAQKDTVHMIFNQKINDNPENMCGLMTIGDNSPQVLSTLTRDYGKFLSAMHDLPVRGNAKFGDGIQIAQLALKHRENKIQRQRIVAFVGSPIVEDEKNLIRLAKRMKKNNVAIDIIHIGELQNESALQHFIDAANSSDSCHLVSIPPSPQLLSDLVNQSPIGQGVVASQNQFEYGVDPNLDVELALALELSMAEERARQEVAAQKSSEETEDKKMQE
The target is the same in experiment [2]. As to the kind of experiment: SPR. In general terms: SPR reads the build-up and loss of mass on a sensor chip optically.
Experiment [3] shares this target. As to the kind of experiment: AUC.

Take “Lys48-linked diubiquitin (from UniProt P0CG47 1-76; P0CG47 1-76)”: the pKd was 4.86 in experiment [1] and 4.46 in experiment [2]. The stoichiometry N in experiment [1] and in experiment [3] was 1 in each case.
“Lys63-linked diubiquitin (from UniProt P0CG47 1-76; P0CG47 1-76)”: the KD of each of the two equivalent sites in experiment [1] was determined as 134 µM. In experiment [3], this substance gave a stoichiometry N of 1.

Source of the values: publication PMC2962499.
